Test results from patent publication US20170088610A1 (RINAT NEUROSCIENCE, published 2017).
Changes are numbered by the printed parent chain. In names and notes the source's numbering stands.

B1: 8L2-4D5 (CDR-grafted antibody, template) (Fab, V domains shown)
VH: QVQLQESGPGLVKPSETLSLTCTVSGFSLIGYDINWIRQPPGKGLEWIGMIWGDGTTDYNSALKSRVTISVDTSKNQFSLKLSSVTAADTAVYYCARGGYYYGTSYYFDYWGQGTLVTVS
VL: DIQMTQSPSSLSASVGDRVTITCRASQDISNHLNWYQQKPGKAPKLLIYYISRFHSGVPSRFSGSGSGTDFTFTISSLQPEDIATYYCQQSKTLPYTFGQGTKLEIKR
B2: heavy chain library clone H225 (Fab, V domains shown)
VH: B1 VH with I34V, N35T, M50G, A62S, L63V, V71K
VL: B1 VL
notes: See note of m8
B3: H19-L129 (combined clone, H1 H2 L1 L2 matured) (Fab, V domains shown)
VH: B1 VH with I34L, M50I, L63V, V71K
VL: B1 VL with D28S, H32N, I51T
notes: See note of m8; also called H19-L129 Fab; Fab H19-L129
B4: light chain library clone L208 (Fab, V domains shown)
VH: B1 VH with V71K
VL: B1 VL with D28Y, I51T
notes: See note of m8
B5: H19-L129 template Fab with L_S91E; L_K92K and H_Y101Y; H_G103A (Fab, V domains shown)
VH: B1 VH with I34L, M50I, L63V, V71K, G103A
VL: B1 VL with D28S, H32N, I51T, S91E
notes: See note of m8
B6: heavy chain library clone H19 (Fab, V domains shown)
VH: B1 VH with I34L, M50I, L63V, V71K
VL: B1 VL
notes: See note of m8
B7: light chain library clone L129 (Fab, V domains shown)
VH: B1 VH with V71K
VL: B1 VL with D28S, H32N, I51T
notes: paired with the CDR-grafted heavy chain; See note of m8
B8: heavy chain library clone H222 (Fab, V domains shown)
VH: B1 VH with I34V, N35T, M50G, L63V, V71K
VL: B1 VL
notes: See note of m8
B9: light chain library clone L81 (Fab, V domains shown)
VH: B1 VH with V71K
VL: B1 VL with S26F, D28A, H32Q, S56T
notes: See note of m8
B10: light chain library clone L97 (Fab, V domains shown)
VH: B1 VH with V71K
VL: B1 VL with D28S, H32Q, I51V
notes: See note of m8
B11: 8L2-6D5 (CDR-grafted antibody with framework mutation V71K) (Fab, V domains shown)
VH: B1 VH with V71K
VL: B1 VL
notes: Fab (human IgG2 CH1 + C-kappa, His tag at heavy chain C terminus); also called 8L2-6D5 Fab; 8L2-6D5 (control)
B12: heavy chain library clone H109 (Fab, V domains shown)
VH: B1 VH with I34S, M50I, V71K
VL: B1 VL
notes: paired with the CDR-grafted light chain; See note of m8
B13: 8L2-6D5 template Fab with L_S91E; L_K92A and H_Y101W; H_G103A (Fab, V domains shown)
VH: B1 VH with V71K, Y101W, G103A
VL: B1 VL with S91E, K92A
notes: See note of m8
B14: 8L2-6D5 template Fab with L_S91E; L_K92R and H_Y101W; H_G103A (Fab, V domains shown)
VH: B1 VH with V71K, Y101W, G103A
VL: B1 VL with S91E, K92R
notes: See note of m8
B15: 8L2-6D5 Fab with CDR L3 mutation Y96R (Fab, V domains shown)
VH: B1 VH with V71K
VL: B1 VL with Y96R
notes: See note of m8
B16: light chain library clone L6 (Fab, V domains shown)
VH: B1 VH with V71K
VL: B1 VL with S26F, D28S, H32Q, I51A
notes: See note of m8
B17: heavy chain library clone H9 (Fab, V domains shown)
VH: B1 VH with I34V, N35S, M50I, A62S, L63V, V71K
VL: B1 VL
notes: See note of m8
B18: heavy chain library clone H227 (Fab, V domains shown)
VH: B1 VH with N35S, M50Q, A62S, L63V, V71K
VL: B1 VL
notes: See note of m8
B19: H19-L129 template Fab with L_S91E; L_K92S and H_Y101W; H_G103S (Fab, V domains shown)
VH: B1 VH with I34L, M50I, L63V, V71K, Y101W, G103S
VL: B1 VL with D28S, H32N, I51T, S91E, K92S
notes: See note of m8
B20: clone 3C (Fab) (Fab, V domains shown)
VH: B1 VH with I34L, M50I, L63V, V71K, Y101W, G103A
VL: B1 VL with D28S, H32N, I51T, S91E, K92R
notes: same L1, L2, H1, H2 mutations as 3E; See note of m8; also called Fab 3C
B21: heavy chain library clone H18 (Fab, V domains shown)
VH: B1 VH with I34A, N35T, M50G, L63V, V71K
VL: B1 VL
notes: See note of m8
B22: H19-L129 template Fab with L_S91E; L_K92R and H_Y101Y; H_G103A (Fab, V domains shown)
VH: B1 VH with I34L, M50I, L63V, V71K, G103A
VL: B1 VL with D28S, H32N, I51T, S91E, K92R
notes: See note of m8
B23: heavy chain library clone H28 (Fab, V domains shown)
VH: B1 VH with I34S, N35T, M50S, V71K
VL: B1 VL
notes: See note of m8

Assays:
[1] = target: T1, human nerve growth factor (human, UniProt P01138 122-241); experiment: BIAcore SPR, Fab over immobilised human NGF
T1 construct: Immobilised on CM5 chips for BIAcore, soluble in neuron survival assays; also called human NGF; hNGF
T1 sequence (P01138 122-241 limits assumed): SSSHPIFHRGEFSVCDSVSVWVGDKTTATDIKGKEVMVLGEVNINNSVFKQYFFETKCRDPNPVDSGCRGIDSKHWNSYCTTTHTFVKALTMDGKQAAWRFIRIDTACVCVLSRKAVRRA

[2] = target: T1, human nerve growth factor; experiment: BIAcore SPR screen, Fab over immobilised human NGF
Procedure: (§1) A screening BIAcore assay was optimized to determine the affinity of Fab clones from libraries. Supernatants of small culture lysates were injected at […] for 2 min. Dissociation times of 10 to 15 minutes were used for determination of a single exponential dissociation rate (koff) using BIAevaluation software. […] Clones showing improved (slower) koff values were expressed at large scale and full kinetic parameters, kₒₙ and koff, were determined on purified protein.
(§2) For affinity screening experiments, each library was further paired with the corresponding CDR-grafted light or heavy chain (for example, the H1/H2 library was paired with CDR-grafted light chain), the antibody was expressed, and affinity to human NGF of the individual clones was screened using the BIACORE surface plasmon resonance (SPR) system (BIAcore, Inc. Piscataway, N.J.) according to the manufacturer's instructions and as described above. koff, kₒₙ and KD were determined. Antibody clones were ranked based on koff rates, since generally most variation in affinity is seen in koff rates, and further because koff rates are independent of antibody concentration.

[3] = target: T1, human nerve growth factor; experiment: BIAcore SPR screen, Fab over immobilised human NGF; KD calculated from koff with kon 4e4 M-1s-1
Procedure: as §1, §2

[4] = target: T1, human nerve growth factor; experiment: cell-based or functional assay
[5] = target: rat nerve growth factor (rat, UniProt P25427 122-241); experiment: cell-based or functional assay
rat nerve growth factor, sequence (P25427 122-241 limits assumed): as the sequence (P01138 122-241 limits assumed) above, with S3T, I6V, R9M, M37T, D60A, D65E, M92T, G94D, V117A, A120G counted along it

[6] = target: T1, human nerve growth factor; experiment: BIAcore SPR screen, Fab over immobilised human NGF; remark: listed apart in the source
[7] = target: T1, human nerve growth factor; experiment: BIAcore SPR screen, Fab over immobilised human NGF; remark: listed apart in the source
Procedure: as §1

[8] = target: T1, human nerve growth factor; experiment: BIAcore SPR screen, Fab over immobilised human NGF; KD calculated from koff with kon 4e4 M-1s-1; screening KD calculated from koff with the fixed kon 4e4; paragraph 422 gives about 1 nM
[9] = target: T1, human nerve growth factor; experiment: BIAcore SPR screen, Fab over immobilised human NGF; KD calculated from koff with kon 4e4 M-1s-1; remark: listed apart in the source
Procedure: as §1

[10] = target: T1, human nerve growth factor; experiment: BIAcore SPR screen, Fab over immobilised human NGF; remark: listed apart in the source
Procedure: as §1
(§3) 20-80 clones from each small library were screened using BIAcore analysis as described herein. Samples were simultaneously analyzed by BIAcore for binding affinity to NGF in one channel of the BIAcore chip and for presence of Fab by binding to a penta-histag antibody in another channel of the sensor chip, to detect the his tag at the C terminus of the heavy chain. Clones that expressed protein were classified as having the same affinity, worse affinity, better affinity or no binding, using koff to classify: The results of this analysis are shown in Table 5.

[11] = target: T1, human nerve growth factor; experiment: BIAcore SPR screen, Fab over immobilised human NGF; KD calculated from koff with kon 4e4 M-1s-1; remark: listed apart in the source
Procedure: as §1, §3

[12] = target: T1, human nerve growth factor; experiment: BIAcore SPR screen, Fab over immobilised human NGF; KD calculated from koff with kon 4e4 M-1s-1; 8L2-6D5 template, not H19-L129 template
Procedure: (§4) Affinities of anti-NGF Fabs and monoclonal antibodies were determined using the BIAcore3000™ surface plasmon resonance (SPR) system (BIAcore, INC, Piscaway N.J.). CM5 chips were activated with N-ethyl-N′-(3-dimethylaminopropyl)-carbodiinide hydrochloride (EDC) and N-hydroxysuccinimide (NETS) according to the supplier's instructions. Human NGF was diluted into 10 mM sodium acetate pH 4.0 and injected over the activated chip at a concentration of 0.005 mg/mL. Using variable flow time across the individual chip channels, two ranges of antigen density were achieved: 100-200 response units (RU) for detailed kinetic studies and 500-600 RU for screening assays. The chip was blocked with ethanolamine. […] HBS-EP buffer (0.01M HEPES, pH 7.4, 0.15 NaCl, 3 mM EDTA, 0.005% Surfactant […]) was used as running buffer for all the BIAcore assays.
as §1

[13] = target: T1, human nerve growth factor; experiment: BIAcore SPR, purified Fab over immobilised human NGF (100 RU); purified Fab 3C, 100 RU NGF on chip
Procedure: as §4
Briefly, several concentrations of antibodies (Fabs) were injected for 2 minutes onto a CM5 chip with 100 RU of immobilized human NGF on it, and permitted to dissociate for 1800 seconds. […] Data was analyzed using BIAevaluation software following the manufacturer's instructions.

| Binder | koff [2] | Kd [3] | koff [7] | further results |
| --- | --- | --- | --- | --- |
| B1 |  |  |  | Kd [1]: ~38 nM |
| B2 | 0.00038 s⁻¹ | 9.5 nM |  |  |
| B3 |  |  | 0.00011 s⁻¹ | IC50, human NGF-dependent survival of mouse E13.5 trigeminal neurons (1.5 pM NGF) [4]: 9.6 pM; IC50, human NGF-dependent survival of mouse E13.5 trigeminal neurons (15 pM NGF) [4]: 60.1 pM; IC50, rat NGF-dependent survival of mouse E13.5 trigeminal neurons (1.5 pM NGF) [5]: 6 pM; IC50, rat NGF-dependent survival of mouse E13.5 trigeminal neurons (15 pM NGF) [5]: 31 pM; Kd [1]: ~1 nM; koff [6]: 0.00011 s⁻¹; Kd [8]: ~2.75 nM |
| B4 | 0.00046 s⁻¹ | 11 nM |  |  |
| B5 |  |  | 2e-05 s⁻¹ | Kd [9]: 0.5 nM |
| B6 | 0.00024 s⁻¹ | 6 nM |  |  |
| B7 | 0.00045 s⁻¹ | 11 nM |  |  |
| B8 | 0.00038 s⁻¹ | 9.5 nM |  |  |
| B9 | 0.00074 s⁻¹ | 18 nM |  |  |
| B10 | 0.00056 s⁻¹ | 14 nM |  |  |
| B11 | 0.001 s⁻¹ | 25 nM | 0.001 s⁻¹ | IC50, human NGF-dependent survival of mouse E13.5 trigeminal neurons (1.5 pM NGF) [4]: 462 pM; IC50, human NGF-dependent survival of mouse E13.5 trigeminal neurons (15 pM NGF) [4]: 1580 pM; IC50, rat NGF-dependent survival of mouse E13.5 trigeminal neurons (1.5 pM NGF) [5]: 169 pM; IC50, rat NGF-dependent survival of mouse E13.5 trigeminal neurons (15 pM NGF) [5]: 730 pM; Kd [1]: ~15 nM; koff [10]: 0.001 s⁻¹; Kd [11]: 25 nM; Kd [9]: 25 nM |
| B12 | 0.00016 s⁻¹ | 4 nM |  |  |
| B13 |  |  | 0.00055 s⁻¹ | Kd [9]: 13 nM |
| B14 |  |  | 0.0001 s⁻¹ | Kd [12]: 2.5 nM |
| B15 |  |  |  | koff [10]: 0.0017 s⁻¹; Kd [11]: 42 nM |
| B16 | 0.00082 s⁻¹ | 20 nM |  |  |
| B17 | 0.00041 s⁻¹ | 10.2 nM |  |  |
| B18 | 0.00054 s⁻¹ | 13.5 nM |  |  |
| B19 |  |  | 4.7e-05 s⁻¹ | Kd [9]: 1.1 nM |
| B20 |  |  | 1.4e-05 s⁻¹ | IC50, human NGF-dependent survival of mouse E13.5 trigeminal neurons (1.5 pM NGF) [4]: 5.6 pM; IC50, human NGF-dependent survival of mouse E13.5 trigeminal neurons (15 pM NGF) [4]: 80.9 pM; IC50, rat NGF-dependent survival of mouse E13.5 trigeminal neurons (1.5 pM NGF) [5]: 6 pM; IC50, rat NGF-dependent survival of mouse E13.5 trigeminal neurons (15 pM NGF) [5]: 31.6 pM; Kd [13]: ~0.35 nM; koff [13]: ~1.4e-05 s⁻¹; Kd [9]: 0.35 nM |
| B21 | 0.00042 s⁻¹ | 10.5 nM |  |  |
| B22 |  |  | 1.5e-05 s⁻¹ | Kd [9]: 0.37 nM |
| B23 | 0.00075 s⁻¹ | 18.7 nM |  |  |
